Results on four molecules are retold here after paper PMC11464976, “Insights into structure and activity of a UDP-GlcNAc 2-epimerase involved in secondary cell wall polymer biosynthesis in Paenibacillus alvei” (Frontiers in Molecular Biosciences, 2024).

Common to all, as to assay: purified protein
What all share (assay type): biochemical, Paenibacillus alvei

Data set [1] has as its system T1, CC(=O)N[C@H]1[C@@H](OP(=O)(O)OP(=O)(O)OC[C@H]2O[C@@H](n3ccc(=O)[nH]c3=O)[C@H](O)[C@@H]2O)O[C@H](CO)[C@@H](O)[C@@H]1O.
T1 construct: amino acids 1-384, Leu-Glu linker and C-terminal His6 tag, pET22b(+), E. coli BL21(DE3), Ni-NTA
The note with it: forward reaction, 10 mM sodium phosphate pH 8.0, 50 mM MgCl2, 30 °C, apparent constant.

Substrate in data set [2]: CC(=O)N[C@@H]1[C@@H](OP(=O)(O)OP(=O)(O)OC[C@H]2O[C@@H](n3ccc(=O)[nH]c3=O)[C@H](O)[C@@H]2O)O[C@H](CO)[C@@H](O)[C@@H]1O
Conditions: reverse reaction, 10 mM sodium phosphate pH 8.0, 50 mM MgCl2, 30 °C, 45 min, apparent constant.

Substrate in data set [3]: CC(=O)N[C@H]1[C@@H](OP(=O)(O)OP(=O)(O)OC[C@H]2O[C@@H](n3ccc(=O)[nH]c3=O)[C@H](O)[C@@H]2O)O[C@H](CO)[C@@H](O)[C@@H]1O
The note with it: forward reaction, 10 mM sodium phosphate pH 8.0, 50 mM MgCl2, 30 °C, 5 min, apparent constant.

Where [4] appears, read: kcat 0.05 in text fits printed kcat/Km 0.03, table prints 0.53.

Consider “PaMnaA (MnaA.His6) (Paenibacillus alvei; Q42A)”, for which, in data set [1] (setting [4]), the Km worked out at 1.61 mM, the kcat is 0.05 s⁻¹ and the kcat/Km came to 30 M⁻¹ s⁻¹.
As for “PaMnaA (MnaA.His6) (Paenibacillus alvei; H241A)”, in data set [1], the Michaelis constant (Km) was 3.27 mM, the kcat amounted to 0.53 s⁻¹ and the specificity constant (kcat/Km) turned out to be 160 M⁻¹ s⁻¹.
Take “PaMnaA (MnaA.His6) (Paenibacillus alvei; Q69A)”: in data set [1], the Km was 8.92 mM, the kcat turned out to be 37.9 s⁻¹ and the kcat/Km came out at 4250 M⁻¹ s⁻¹.

B1: PaMnaA (MnaA.His6) (Paenibacillus alvei) (protein)
chain: MSKVKVMTVFGVRPEAIKMAPLILELQKHPEHIESIVCVTAQHRQMLDQVLDVFNIKPDYDLDIMQARQTLNDISVRVLQGLEPVLQEAKPDIVLVHGDTLTTFLASYAAFMQQIKVGHVEAGLRTWNKLSPFPEEMNRQLTGVLADLHFAPTDWSASNLRKENKQDASIFVTGNTVTDVFQYTVRSDYKHEVLDWAQGKRLVLMTAHRRESQGEPHRNIFRAVRRIADEFEDIAIVYPVHPSPAVREPAHEMLGDHPRIKLIDPLDVVDLHNFYPHTHLILTDSGGLQEEAPSFGIPVLVLRETTERPEGIDAGTLELVGTDEEKVYARAKALLSDETTYARMSKAANPYGDGKASQRIVSAILHSFGVLEERPEPFHTKFTN
notes: amino acids 1-384, Leu-Glu linker and C-terminal His6 tag, pET22b(+), E. coli BL21(DE3), Ni-NTA
Take B1: in the data set “purified protein [2]”, the Km came to 2.41 mM and the kcat was 6.02 s⁻¹. For the same molecule, in the data set “purified protein [3]”, the Km worked out at 3.91 mM, the kcat came to 33.4 s⁻¹ and the kcat/Km is 8560 M⁻¹ s⁻¹.
